The target in assay [1] is T1, 水痘-带状疱疹病毒(VZV) pOka毒株ORF9蛋白 (Varicella-Zoster Virus, pOka毒株, UniProt P09272 1-302).
T1 sequence: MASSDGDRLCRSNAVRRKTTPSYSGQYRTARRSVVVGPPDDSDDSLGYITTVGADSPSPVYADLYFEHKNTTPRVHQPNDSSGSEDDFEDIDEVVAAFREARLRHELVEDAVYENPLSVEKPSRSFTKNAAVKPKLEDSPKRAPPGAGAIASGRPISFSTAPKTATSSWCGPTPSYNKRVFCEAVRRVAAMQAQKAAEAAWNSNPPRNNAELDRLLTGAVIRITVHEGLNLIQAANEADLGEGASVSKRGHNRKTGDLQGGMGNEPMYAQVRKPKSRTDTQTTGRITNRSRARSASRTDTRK
As to the kind of experiment: cell-based or functional assay.

The target in the next assay is T2, 不含表位肽的载体蛋白(HBcAg) C149.
T2 construct: also called 载体蛋白C149; 突变型HBc
T2 chain: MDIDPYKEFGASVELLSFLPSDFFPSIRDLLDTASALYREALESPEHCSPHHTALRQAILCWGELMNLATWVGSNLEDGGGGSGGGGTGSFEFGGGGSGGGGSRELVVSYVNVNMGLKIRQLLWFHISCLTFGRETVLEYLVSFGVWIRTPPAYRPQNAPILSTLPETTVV
As to the kind of experiment: Western blot.

A further assay has as its target T3, VZV-ORF9-肽11 (Varicella-Zoster Virus, pOka毒株).
T3 construct: Synthetic 20-mer of ORF9; also called 111-130aa
T3 peptide: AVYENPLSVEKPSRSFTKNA
The assay is described as follows: indirect ELISA, peptide coated at 1μg/孔.

The target in another assay is T4, 融合蛋白VZV-ORF9-F2-1.
T4 chain: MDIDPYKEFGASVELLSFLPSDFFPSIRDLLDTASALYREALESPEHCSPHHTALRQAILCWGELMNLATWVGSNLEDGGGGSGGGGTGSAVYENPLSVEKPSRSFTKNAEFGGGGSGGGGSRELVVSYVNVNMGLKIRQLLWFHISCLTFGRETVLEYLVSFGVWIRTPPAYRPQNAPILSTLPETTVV
The assay is described as follows: Western blot, antibody at 2μg/mL. Background: A western blot detects proteins with antibodies after separation by electrophoresis.

The target of another assay is T5, 融合蛋白VZV-ORF9-F2-3.
T5 chain: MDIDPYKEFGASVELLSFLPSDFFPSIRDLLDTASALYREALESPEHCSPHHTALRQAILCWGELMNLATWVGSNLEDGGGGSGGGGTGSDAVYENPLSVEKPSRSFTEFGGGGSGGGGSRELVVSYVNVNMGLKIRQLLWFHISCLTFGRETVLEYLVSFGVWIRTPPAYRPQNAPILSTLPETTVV
As to the kind of experiment: Western blot, antibody at 2μg/mL.

Another assay has as its target T6, 融合蛋白VZV-ORF9-F2-5.
T6 chain: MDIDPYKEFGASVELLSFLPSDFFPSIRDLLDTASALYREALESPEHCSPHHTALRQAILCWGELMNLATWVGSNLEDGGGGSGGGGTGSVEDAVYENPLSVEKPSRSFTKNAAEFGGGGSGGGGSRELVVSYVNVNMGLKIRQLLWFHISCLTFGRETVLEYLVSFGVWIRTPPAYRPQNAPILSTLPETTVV
As to the kind of experiment: Western blot, antibody at 2μg/mL.

A further assay has as its target T7, 融合蛋白VZV-ORF9-F2-7.
T7 chain: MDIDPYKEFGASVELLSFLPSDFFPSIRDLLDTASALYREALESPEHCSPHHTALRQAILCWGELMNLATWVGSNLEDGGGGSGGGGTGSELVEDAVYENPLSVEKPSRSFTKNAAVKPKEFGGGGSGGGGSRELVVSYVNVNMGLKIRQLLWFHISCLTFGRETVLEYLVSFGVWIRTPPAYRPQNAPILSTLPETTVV
As to the kind of experiment: Western blot, antibody at 2μg/mL.

The target of another assay is T8, 融合蛋白VZV-ORF9-F2-4.
T8 chain: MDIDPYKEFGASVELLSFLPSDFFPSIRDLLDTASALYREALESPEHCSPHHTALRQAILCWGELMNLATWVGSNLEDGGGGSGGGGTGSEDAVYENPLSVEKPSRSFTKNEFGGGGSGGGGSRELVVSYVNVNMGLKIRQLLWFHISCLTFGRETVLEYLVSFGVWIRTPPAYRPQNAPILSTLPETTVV
As to the kind of experiment: Western blot, antibody at 2μg/mL.

The target of another assay is T9, 融合蛋白VZV-ORF9-F2-2.
T9 chain: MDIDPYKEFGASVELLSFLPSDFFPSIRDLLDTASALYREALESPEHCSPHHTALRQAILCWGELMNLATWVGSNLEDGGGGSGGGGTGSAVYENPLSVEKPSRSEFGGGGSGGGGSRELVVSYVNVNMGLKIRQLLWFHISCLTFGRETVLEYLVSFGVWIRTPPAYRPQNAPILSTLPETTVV
The assay is described as follows: Western blot, antibody at 2μg/mL.

Another assay has as its target T10, 融合蛋白VZV-ORF9-F2-8.
T10 chain: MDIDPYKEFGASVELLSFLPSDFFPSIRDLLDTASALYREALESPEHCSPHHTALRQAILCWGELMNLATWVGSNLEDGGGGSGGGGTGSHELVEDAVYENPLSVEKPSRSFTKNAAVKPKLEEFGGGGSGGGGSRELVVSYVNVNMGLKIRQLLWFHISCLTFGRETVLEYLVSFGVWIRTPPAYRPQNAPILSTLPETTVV
As to the kind of experiment: Western blot, antibody at 2μg/mL.

In the next assay the target is T11, 融合蛋白VZV-ORF9-F2-6.
T11 chain: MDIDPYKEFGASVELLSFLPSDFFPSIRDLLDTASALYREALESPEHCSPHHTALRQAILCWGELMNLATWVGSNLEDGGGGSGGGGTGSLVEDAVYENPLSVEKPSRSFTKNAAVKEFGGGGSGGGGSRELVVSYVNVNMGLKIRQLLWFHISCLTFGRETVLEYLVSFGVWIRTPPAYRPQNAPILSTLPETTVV
The assay is described as follows: Western blot, antibody at 2μg/mL.

For a further assay, the target named is T12, VZV-ORF9-肽9 (Varicella-Zoster Virus, pOka毒株).
T12 construct: Synthetic 20-mer of ORF9; also called 91-110aa
T12 peptide: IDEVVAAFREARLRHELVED
The assay is described as follows: indirect ELISA, peptide coated at 1μg/孔. A general note: An ELISA detects its analyte on a solid surface through an enzyme-linked reagent.

In the next assay the target is T13, 融合蛋白VZV-ORF9-F1.
T13 construct: Expressed in E. coli, forms virus-like particles; Run on SDS-PAGE for the Western blot
T13 chain: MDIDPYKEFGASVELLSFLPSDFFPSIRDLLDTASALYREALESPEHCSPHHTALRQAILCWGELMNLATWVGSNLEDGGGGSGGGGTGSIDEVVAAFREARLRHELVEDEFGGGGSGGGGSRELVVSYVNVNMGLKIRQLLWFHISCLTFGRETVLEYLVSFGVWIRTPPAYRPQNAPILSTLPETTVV
As to the kind of experiment: Western blot, antibody at 2μg/mL.

A further assay addresses T14, VZV-ORF9-肽12 (Varicella-Zoster Virus, pOka毒株).
T14 construct: Synthetic 20-mer of ORF9; also called 121-140aa
T14 peptide: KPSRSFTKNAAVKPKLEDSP
As to the kind of experiment: indirect ELISA, peptide coated at 1μg/孔.

The target of a further assay is T15, 融合蛋白VZV-ORF9-F3.
T15 chain: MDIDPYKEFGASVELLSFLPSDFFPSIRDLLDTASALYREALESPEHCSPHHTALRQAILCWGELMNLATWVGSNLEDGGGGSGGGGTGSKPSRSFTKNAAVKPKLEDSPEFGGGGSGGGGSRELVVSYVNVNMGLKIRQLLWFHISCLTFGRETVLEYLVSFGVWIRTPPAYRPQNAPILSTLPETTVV
As to the kind of experiment: Western blot, antibody at 2μg/mL.

B1: 抗VZV ORF9中和性单克隆抗体4E8 (antibody, IgG1, V domains shown)
VH: QVQLQQSGPELVKPGASVKMSCKTSGYTFTDDVISWVKQRTGQGLEWIGEINPGSGSIYYNEKFKGKATLTADKSSTTAYMQLSSLTSEDSAVYFCARSQYWGQGTTLTVSS
VL: DVVMTQTPLSLPVSLGDQASISCRSSQSLVHSNGNTYLHWYLQKPGQSPKLLIYKVSNRFSGVPDRFSGSGSGTDFTLKISRVEAEDLGVYFCSQSTHVPLTFGAGTKLELK
notes: also called 单抗4E8
On to B1, for which the “中和效价 (ELISPOT中和实验, VZV pOka, ARPE-19细胞)” value in assay [1] is 32 dilution 1:x of the 1 mg/mL stock. In addition, the binding result in the assay with 不含表位肽的载体蛋白(HBcAg) C149 is listed as “no binding (tested: 2μg/mL)”; in the assay with VZV-ORF9-肽11, “binds”; in the assay with 融合蛋白VZV-ORF9-F2-1, “binds”; in the assay with 融合蛋白VZV-ORF9-F2-3, “binds”; with 融合蛋白VZV-ORF9-F2-5 it was “binds”; in the assay with 融合蛋白VZV-ORF9-F2-7, “binds”. For the same molecule, the binding result in the assay with 融合蛋白VZV-ORF9-F2-4, in the assay with 融合蛋白VZV-ORF9-F2-2, with 融合蛋白VZV-ORF9-F2-8 and with 融合蛋白VZV-ORF9-F2-6 was “binds” each time.

B2: 抗VZV ORF9中和性单克隆抗体4E9 (antibody, IgG1, V domains shown)
VH: QVQLQQSGAELMKPGASVKISCKATGYTFSRYWIEWVKLRPGHGLDWIGEILPGSKTNYNEKFKGKATFTADTSSNTAYMQLSSLTSEDSAVYYCAREGFVYWGQGTLVTVSA
VL: DIKMTQSPSSMYASLGERVTITCKASQDINSYLSWLQQKPGKSPKTLIYRANRLVDGVPSRFSGSGSGQDYSLTISSLEYEDMGIYYCLQFDEFPYTFGGGTKLEI
notes: also called 单抗4E9
As for B2, in assay [1], the “中和效价 (ELISPOT中和实验, VZV pOka, ARPE-19细胞)” value was 16 dilution 1:x of the 1 mg/mL stock. The binding result with 不含表位肽的载体蛋白(HBcAg) C149 is on record as “no binding (tested: 2μg/mL)”; with VZV-ORF9-肽9 it was “binds”; with 融合蛋白VZV-ORF9-F1 it was “binds”.

B3: 抗VZV ORF9中和性单克隆抗体13A7 (antibody, IgG1, V domains shown)
VH: QVQLQQSGAVLARPGASVKLSCKASGYTFTTYWVQWIKQRPGQGLEWIGTIYPGDGDARYAQKFKGKATLTATESSSTAYMQLSSLASEDSAVYYCSRREVYDDYAWFAYWGQGTLVTVSA
VL: QIVLSQSPAILSASPGEKVTMTCRASSSVHYMHWYQQKSGFSPKPWIYATSNLASGVPARFSGSESGTSYSLTISRVEAEDAATYFCQQWSTSPPTFGSGTKLEIK
notes: also called 单抗13A7
As for B3, in assay [1], the “中和效价 (ELISPOT中和实验, VZV pOka, ARPE-19细胞)” value was 16 dilution 1:x of the 1 mg/mL stock. Also, the values for the binding result in the assay with 不含表位肽的载体蛋白(HBcAg) C149, in the assay with VZV-ORF9-肽12 and with 融合蛋白VZV-ORF9-F3 were “no binding (tested: 2μg/mL)”, “binds” and “binds”, respectively.
